Measured values reported in the supplement of paper PMC10567573.
± gives the standard deviation.

Test: protein stability index of a GFP-peptide fusion (GPS, HEK-293T) (PSI 1-6); higher = more stable
Conditions: c terminus: a fixed tail appended
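Further: 24-mer peptide tiles fused after GFP, lentivirally expressed, FACS-sorted into six equal bins by GFP/DsRed ratio, decoded by Illumina sequencing, PSI is the read-weighted mean bin number.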

Row | Sequence | protein stability index (treatment: DMSO) | protein stability index (treatment: MLN4924 1 uM, 8 h)
1 | GHHAEKLPAGAGAPKAGLEEAPAV [TNFSF13B] | 5.22 ± 0.3 | 5.27 ± 0.2
2 | VKVTFNKQDSLVILTIMATLKIRN [TMEM106C] | 2.92 ± 0.53 | 2.89 ± 0.32
3 | PAPTTTTATREEASTSLPTKPTQG [CLPTM1] | 5.54 ± 0.19 | 5.57 ± 0.14
4 | MARNPAAIDMFIIGATFTDWFTSY [FBXO3] | 3.1 ± 0.62 | 2.84 ± 0.57
5 | QFISRFLEGQSGVTIKHVACGDFF [NEK8] | 2.51 ± 0.47 | 2.39 ± 0.37
6 | KPSFQSGGRRRPPASSRNRSPSGS [RBMY1A1] | 4.93 ± 0.33 | 5.35 ± 0.32
7 | SSIGRLFGKKEKGRLIQLSRDGAT [PPFIA4] | 3.19 ± 0.48 | 3.38 ± 0.54
8 | YMDRFTVAGVLPDIEQFFNIGDSS [SPNS1] | 2.71 ± 0.34 | 2.99 ± 0.18
9 | MKQRIAEENIMKSNIDKKFSAHYD [FAM50A] | 3.85 ± 0.2 | 3.97 ± 0.14
10 | RMQALLIRERILGPSHPDTSYYIR [FEM1C] | 2.2 ± 0.17 | 2.18 ± 0.44
11 | TPLHLDLTQLHRLSLESSPDAPDH [PLEKHN1] | 4.59 ± 0.29 | 4.63 ± 0.23
12 | FVDSIRRQFEFSVDSFQIILDSLL [TENT5C] | 2.33 ± 0.37 | 2.31 ± 0.14
13 | AHLGEEAHKCLECGKCFSQNTHLT [ZNF263] | 3.45 ± 0.34 | 3.55 ± 0.48
14 | LSGATKKGTEKQTTSETQKSVQCG [NETO1] | 5.17 ± 0.27 | 5.22 ± 0.24
15 | SGEKYDPDANTWTALPPMNEARHN [GAN] | 4.61 ± 0.55 | 4.8 ± 0.13
16 | FQEQVEKLKALHVDSAEYSCLKAI [NR2F2] | 3.61 ± 0.2 | 3.74 ± 0.23
17 | NLIYRSTRHLKRLALMIQSSGNTV [TMEM192] | 2.93 ± 0.43 | 2.67 ± 0.42
18 | YDLEYWAFHDGQRSRLRPRDDLDR [TRIM14] | 3.52 ± 0.36 | 3.69 ± 0.34
19 | GTLNREDLSRLVNCLTGEGEDTRL [CIB1] | 4.25 ± 0.32 | 4.48 ± 0.31
20 | VFRIFKLSRHSKGLQILGHTLRAS [KCNA4] | 2.39 ± 1 | 2.6 ± 0.68
21 | AIPEAIGFVMVPFEYRGEQHKTCM [EDNRA] | 2.36 ± 0.32 | 2.31 ± 0.27
